Test results: patent US20210009685A1 (ALTEOGEN, published 2021)
Positions count from the first letter of the chain named.

Assays:
FOLR1-Fc [1] = target: T1, FOLR1-Fc (UniProt P15328 25-234, limits assumed); experiment: ELISA, FOLR1-Fc coated (experiment with vAb1); the parent is the reference
T1 construct: also called FOLR1 (ELISA coating); not shown: Fc part

FOLR1-Fc [2] = target: T1, FOLR1-Fc; experiment: ELISA, FOLR1-Fc coated (experiment with vAb3, vAb4, vAb5); the parent is the reference
Experimental: (§1) For the purpose of comparing the binding affinities of the primarily selected clones with each other, ELISA was performed at different clone concentrations in the following manner. 25 μL of FOLR1 was added to each well of a 96-well plate at a concentration of 1 μg/mL, coated on the plate at room temperature for 1 hour, and then blocked with 180 μL of 3% skim milk at room temperature for 1 hour. During blocking, samples to be used as primary antibodies were prepared. As primary antibodies, samples selected by screening were used. The samples were diluted to a concentration of 0.1 to 100 nM (0, 0.1, 0.3, 1, 3, 10, 30, and 100 nM) and cold-stored until use. After blocking, 3% skim milk was removed, and 25 μL of the primary antibody was added to each well and allowed to react at room temperature for 1 hour or more. After completion of the reaction, each well was washed three times with PBS-Tween20 (0.1%) buffer. […] After about 5 minutes, 25 μL of 1 M H₂SO₄ was added to each well to stop the reaction, and the absorbance at a wavelength of 450 nm was measured. From the measurement results, the EC (Effector concentration) value was calculated using the GraphPad Prism 7 program.
(§2) The measured values are obtained in different experiments for comparison with the parent antibody.

[3] = target: T2, Folate receptor alpha (FOLR1) (human, UniProt P15328 25-234, limits assumed); experiment: SPR, Biacore3000, FOLR1 immobilised; the parent is the reference
T2 construct: Antigen printed simply as FOLR1 for the panning, the clone ELISA and the SPR chip; also called human FOLR1; folate receptor-α
Experimental: (§3) To measure the binding affinity of the selected clone for FOLR1, SPR measurement was performed using a Biacore3000. Before each sample was loaded, a CM5 sensor chip was activated with 0.1 M NHS/0.4 M EDC, and then FOLR1 (20 μg/mL in 10 mM acetate, pH 5.0) was immobilized thereon. Then, unreacted NHS was deactivated with 1 M ethanolamine. 250 μL of each sample was prepared at concentrations of 1, 2, 5, 10, 20 and 40 nM, and association and dissociation sensorgrams were obtained while each sample was flushed at 30 μl/min. The sensor chip was regenerated with 10 mM glycine (pH 2.1). The obtained sensorgrams were analyzed using the BIAevaluation software, and the KD values were calculated.
(§4) To measure the binding affinity of the modified antibody vAb1 produced in Example 2 for FOLR1, an SPR assay was performed using a Biacore3000, in the same manner as described in Examples 1-5. The sensorgram was analyzed using the BIAevaluation software, and the KD value was calculated. […] This value is similar to the relative ratio of the values obtained using ELISA.

FOLR1-Fc [4] = target: T1, FOLR1-Fc; experiment: ELISA, FOLR1-Fc coated, antibody titrated (experiment with vAb2)
Experimental: as §1, §2

FOLR1-Fc [5] = target: T1, FOLR1-Fc; experiment: ELISA, FOLR1-Fc coated (experiment with vAb2); the parent is the reference
[6] = target: T2, Folate receptor alpha (FOLR1); experiment: SPR, Biacore3000, FOLR1 immobilised on CM5 chip, antibody as analyte
Experimental: as §3, §4

FOLR1-Fc [7] = target: T1, FOLR1-Fc; experiment: ELISA, FOLR1-Fc coated, antibody titrated (experiment with vAb3, vAb4, vAb5)
Experimental: as §1, §2

FOLR1-Fc [8] = target: T1, FOLR1-Fc; experiment: ELISA, FOLR1-Fc coated, antibody titrated (experiment with vAb1)
Experimental: as §1, §2

[9] = target: T2, Folate receptor alpha (FOLR1); experiment: screening ELISA of panned phage library clones on FOLR1
FOLR1-Fc [10] = target: T1, FOLR1-Fc; experiment: ELISA, FOLR1-Fc coated
Experimental: (§5) For the purpose of comparing the binding affinities of the primarily selected clones with each other, ELISA was performed at different clone concentrations in the following manner. 25 μL of FOLR1 was added to each well of a 96-well plate at a concentration of 1 μg/mL, coated on the plate at room temperature for 1 hour, and then blocked with 180 μL of 3% skim milk at room temperature for 1 hour. During blocking, samples to be used as primary antibodies were prepared. As primary antibodies, samples selected by screening were used. The samples were diluted to a concentration of 0.1 to 100 nM (0, 0.1, 0.3, 1, 3, 10, 30, and 100 nM) and cold-stored until use. After blocking, 3% skim milk was removed, and 25 μL of the primary antibody was added to each well and allowed to react at room temperature for 1 hour or more. After completion of the reaction, each well was washed three times with PBS-Tween20 (0.1%) buffer. As a secondary antibody, HA-HRP was diluted 3,000-fold with 3% skim milk, and 25 μL of the dilution was added to each well and allowed to react at room temperature for 1 hour or more. After completion of the reaction, each well was washed three times with PBS-Tween20 (0.1%), and 25 μL of substrate TMB was added to each well to confirm color development. After about 5 minutes, 25 μL of 1 M H₂SO₄ was added to each well to stop the reaction, and the absorbance at a wavelength of 450 nm was measured. From the measurement results, the EC (Effector concentration) value was calculated using the GraphPad Prism 7 program.
as §2

FOLR1-Fc [11] = target: T1, FOLR1-Fc; experiment: ELISA, FOLR1-Fc coated, antibody titrated
Experimental: as §5, §2

[12] = target: T2, Folate receptor alpha (FOLR1); experiment: SPR, Biacore3000, FOLR1 immobilised
Experimental: as §3, §4

T2 sequence (P15328 25-234 limits assumed): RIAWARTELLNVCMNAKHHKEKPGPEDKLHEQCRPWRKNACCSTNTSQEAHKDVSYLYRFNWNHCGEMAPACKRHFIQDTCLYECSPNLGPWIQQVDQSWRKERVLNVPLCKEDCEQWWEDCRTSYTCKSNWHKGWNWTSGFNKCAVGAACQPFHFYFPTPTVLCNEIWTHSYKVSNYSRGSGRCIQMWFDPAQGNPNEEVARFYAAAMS
T1 sequence (P15328 25-234 limits assumed): as above

B1: Parent antibody (anti-FOLR1 antibody of US2005/0232919 A1) (antibody, V domains shown)
VH: EVQLVESGGGVVQPGRSLRLSCSASGFTFSGYGLSWVRQAPGKGLEWVAMISSGGSYTYYADSVKGRFAISRDNAKNTLFLQMDSLRPEDTGVYFCARHGDDPAWFAYWGQGTPVTVSS
VL: DIQLTQSPSSLSASVGDRVTITCSVSSSISSNNLHWYQQKPGKAPKPWIYGTSNLASGVPSRFSGSGSGTDYTFTISSLQPEDIATYYCQQWSSYPYMYTFGQGTKVEIK
notes: also called WT
FOLR1-Fc [1]
  Relative Potency: 1 fold (reference)
FOLR1-Fc [2]
  Relative Potency: 1 fold (reference)
[3]
  Relative Potency: 1 fold (reference)
FOLR1-Fc [4]
  EC50: 11.8 ng/mL
FOLR1-Fc [5]
  Relative Potency: 1 fold (reference)
[6]
  Ka: 1.05e+09 M⁻¹
  Kd: 0.96 nM
  koff: 0.000401 s⁻¹
  kon: 419000 M⁻¹ s⁻¹
FOLR1-Fc [7]
  EC50: 3.04 ng/mL
FOLR1-Fc [8]
  EC50: 11 ng/mL

B2: CDR-L2 library clones E9, G6 (Fab, V domains shown)
VH: B1 VH
VL: B1 VL with T52A, N54S, S57T
notes: Fab clones from the phage library on the parent Fab template; Only the CDR-L2 is printed
[9]
  binding result: binds

B3: CDR-L1 library clone D7 (Fab, V domains shown)
VH: B1 VH
VL: B1 VL with S24R, V25A, S28G, I29L
notes: Fab clone from the phage library on the parent Fab template; Only the CDR-L1 is printed
[9]
  binding result: binds

B4: CDR-L1 library clone H7 (Fab, V domains shown)
VH: B1 VH
VL: B1 VL with I29L, N32S
notes: as for B3
[9]
  binding result: binds

B5: Modified antibody vAb2 (antibody, V domains shown)
VH: B1 VH
VL: B1 VL with V25A, S28G, I29L, N32S, N33Y, N54S, L55R
notes: Carries modified CDR-L1 and CDR-L2
FOLR1-Fc [10]
  Relative Potency: 3.04 fold against parent antibody
FOLR1-Fc [11]
  EC50: 3.94 ng/mL

B6: CDR-L2 library clone H2 (Fab, V domains shown)
VH: B1 VH
VL: B1 VL with G51T, T52A, N54S, L55R
notes: Fab clone from the phage library on the parent Fab template; Only the CDR-L2 is printed
[9]
  binding result: binds

B7: CDR-L1 library clone F3 (Fab, V domains shown)
VH: B1 VH
VL: B1 VL with S24R, V25A, S28G, I29V
notes: as for B3
[9]
  binding result: binds

B8: Modified antibody vAb1 (antibody, V domains shown)
VH: B1 VH with P103V
VL: B1 VL with V25A, S28G, I29L, N32S, N33Y, N54S, L55R
notes: Carries modified CDR-H3, CDR-L1 and CDR-L2
FOLR1-Fc [10]
  Relative Potency: 4.48 fold against parent antibody
[12]
  Relative Potency: 4 fold against parent antibody
FOLR1-Fc [11]
  EC50: 2.45 ng/mL
[6]
  Ka: 4.17e+09 M⁻¹
  Kd: 0.24 nM
  koff: 0.000147 s⁻¹
  kon: 612000 M⁻¹ s⁻¹

B9: CDR-L2 library clone C10 (Fab, V domains shown)
VH: B1 VH
VL: B1 VL with G51A, N54S, S57T
notes: as for B6
[9]
  binding result: binds

B10: Modified antibody vAb3 (antibody, V domains shown)
VH: B1 VH
VL: B1 VL with V25A, S28G, I29L, N32S, N33Y
notes: Carries modified CDR-L1
FOLR1-Fc [10]
  Relative Potency: 3.99 fold against parent antibody
FOLR1-Fc [11]
  EC50: 0.77 ng/mL

B11: CDR-L2 library clone B1 (Fab, V domains shown)
VH: B1 VH
VL: B1 VL with G51A, N54S, L55R, S57T
notes: as for B6
[9]
  binding result: binds

B12: CDR-L1 library clone C7 (Fab, V domains shown)
VH: B1 VH
VL: B1 VL with V25A, I29L, N32S, N33Y
notes: as for B3
[9]
  binding result: binds

B13: Modified antibody vAb4 (antibody, V domains shown)
VH: B1 VH
VL: B1 VL with N54S, L55R
notes: Carries modified CDR-L2
FOLR1-Fc [10]
  Relative Potency: 1.94 fold against parent antibody
FOLR1-Fc [11]
  EC50: 1.59 ng/mL

B14: CDR-L1 library clone D5 (Fab, V domains shown)
VH: B1 VH
VL: B1 VL with S24R, S28G
notes: as for B3
[9]
  binding result: binds

B15: CDR-L1 library clone H1 (Fab, V domains shown)
VH: B1 VH
VL: B1 VL with V25A, N32S, N33Y
notes: as for B3
[9]
  binding result: binds

B16: CDR-L2 library clone C3 (Fab, V domains shown)
VH: B1 VH
VL: B1 VL with G51A, L55R, A56E
notes: as for B6
[9]
  binding result: binds

B17: Modified antibody vAb5 (antibody, V domains shown)
VH: B1 VH with P103V
VL: B1 VL
notes: Carries modified CDR-H3
FOLR1-Fc [10]
  Relative Potency: 1.42 fold against parent antibody
FOLR1-Fc [11]
  EC50: 2.17 ng/mL

B18: CDR-L2 library clone G3 (Fab, V domains shown)
VH: B1 VH
VL: B1 VL with G51A
notes: as for B6
[9]
  binding result: binds
